Reference: US20200339657A1, “PEPTIDES AND COMBINATION THEREOF FOR USE IN THE IMMUNOTHERAPY AGAINST CANCERS” (Immatics Biotechnologies GmbH, priority 2017, published 2020)

Key:
CD8+ T cells = assay: In vitro immunogenicity: T-cell priming with aAPCs loaded with peptide/MHC and anti-CD28, multimer readout; type: cell-based, human
HLA-A*02:01 = HLA-A*02:01 (Homo sapiens, UniProt P04439, D140Y/D185E/D98H/E176V/E277Q/G131W/G231S/I119V/I121R/I166T/I218V/L300P/L318F/N151K/N90K/P208A/P217A/Q86G/Q94H/R138H/R169H/T345S); assay: MHC binding assay (UV-ligand exchange, β2m ELISA); conditions: for Peptide exchange: peptide exchange yield, binding to HLA-A*02:01
HLA-A*24:02 = HLA-A*24:02 (Homo sapiens, UniProt P04439, D101N/D140Y/D185E/E176V/E190D/F33S/G103R/G107R/I119L/I121M/I306V/K335N/L105A/L180Q/L300P/N151K/N90K/Q86E/Q94H/R106L/R138H/R89G/T104I/T345S/V100E/W191G/Y123F); assay: MHC binding assay (UV-ligand exchange, β2m ELISA); conditions: for Peptide exchange: peptide exchange yield, binding to HLA-A*24:02

Substance	Peptide exchange (HLA-A*02:01)	also measured
38 (VMLNSNVLL; listed as Homo sapiens) [compound 38]	“++++” (>75% = ++++)	Wells positive [%] (CD8+ T cells; HLA A*02): “+” (<20% = +)
39 (YLLPSVVLL; listed as Homo sapiens) [compound 39]	“++++” (>75% = ++++)	–
40 (KIDDIWNLEV; listed as Homo sapiens) [compound 40]	“+++” (>50 = +++)	–
41 (SLQDTKITL; listed as Homo sapiens) [compound 41]	“+++” (>50 = +++)	–
42 (KMMALVAEL; listed as Homo sapiens) [compound 42]	“++++” (>75% = ++++)	Wells positive [%] (CD8+ T cells; HLA A*02): “++++” (>= 70% = ++++)
43 (GLMTIVTSL; listed as Homo sapiens) [compound 43]	“++++” (>75% = ++++)	Wells positive [%] (CD8+ T cells; HLA A*02): “++” (20%-49% = ++)
44 (SQTGFVVLV; listed as Homo sapiens) [compound 44]	“++” (>20% = ++)	–
45 (KLLDEVTYL; listed as Homo sapiens) [compound 45]	“+++” (>50 = +++)	–
46 (VLITGLPLI; listed as Homo sapiens) [compound 46]	“++++” (>75% = ++++)	–
47 (YQDSWFQQL; listed as Homo sapiens) [compound 47]	“+++” (>50 = +++)	–
50 (ELMPRVYTL; listed as Homo sapiens) [compound 50]	“+++” (>50 = +++)	Wells positive [%] (CD8+ T cells; HLA A*02): “+” (<20% = +)
51 (ALAAELNQL; listed as Homo sapiens) [compound 51]	“+++” (>50 = +++)	–
52 (YVSSGEMMV; listed as Homo sapiens) [compound 52]	“+++” (>50 = +++)	–
53 (LLMTSLTES; listed as Homo sapiens) [compound 53]	“+++” (>50 = +++)	–
54 (YLPPTDPRMSV; listed as Homo sapiens) [compound 54]	“++++” (>75% = ++++)	–
55 (RLWQIQHHL; listed as Homo sapiens) [compound 55]	“+++” (>50 = +++)	–
56 (FLNQIYTQL; listed as Homo sapiens) [compound 56]	“++++” (>75% = ++++)	Wells positive [%] (CD8+ T cells; HLA A*02): “+++” (50%-69% = +++)
57 (GLTGVIMTI; listed as Homo sapiens) [compound 57]	“++++” (>75% = ++++)	Wells positive [%] (CD8+ T cells; HLA A*02): “++++” (>= 70% = ++++)

Substance	Peptide exchange (HLA-A*02:01)	also measured
59 (KLHEIYIQA; listed as Homo sapiens) [compound 59]	“++++” (>75% = ++++)	–
60 (GLPDFVKEL; listed as Homo sapiens) [compound 60]	“++++” (>75% = ++++)	Wells positive [%] (CD8+ T cells; HLA A*02): “++” (20%-49% = ++)
61 (RLFGLFLNNV; listed as Homo sapiens) [compound 61]	“++++” (>75% = ++++)	–
133 (SFDSNLLSF; listed as Homo sapiens) [compound 133]	–	Peptide exchange (HLA-A*24:02): “+” (>10% = +)
134 (TYLTGRQF; listed as Homo sapiens) [compound 134]	–	Peptide exchange (HLA-A*24:02): “++” (>20% = ++)
135 (VIAPIISNF; listed as Homo sapiens) [compound 135]	–	Peptide exchange (HLA-A*24:02): “+++” (>50 = +++)
136 (EYNNIQHLF; listed as Homo sapiens) [compound 136]	–	Peptide exchange (HLA-A*24:02): “+++” (>50 = +++)
137 (KYLSLSNSF; listed as Homo sapiens) [compound 137]	–	Peptide exchange (HLA-A*24:02): “++++” (>75% = ++++)
138 (KYLSIPTVF; listed as Homo sapiens) [compound 138]	–	Wells positive [%] (CD8+ T cells; HLA A*24): “+” (<20% = +); Peptide exchange (HLA-A*24:02): “++++” (>75% = ++++)
139 (PYASLASELF; listed as Homo sapiens) [compound 139]	–	Peptide exchange (HLA-A*24:02): “++++” (>75% = ++++)
140 (KYLSIPAVF; listed as Homo sapiens) [compound 140]	–	Peptide exchange (HLA-A*24:02): “++++” (>75% = ++++)
141 (KYLSIPAVFF; listed as Homo sapiens) [compound 141]	–	Peptide exchange (HLA-A*24:02): “++++” (>75% = ++++)
249 (ALFPERITV; listed as Homo sapiens) [compound 249]	“++++” (>75% = ++++)	Wells positive [%] (CD8+ T cells; HLA A*02): “++” (20%-49% = ++)
250 (KMILKMVQL; listed as Homo sapiens) [compound 250]	“+” (>10% = +)	Wells positive [%] (CD8+ T cells; HLA A*02): “++” (20%-49% = ++)
251 (RLASRPLLL; listed as Homo sapiens) [compound 251]	“+++” (>50 = +++)	–
DYIPYVFKL (listed as Homo sapiens) [SEQ ID NO: 268]	–	bind to HLA-A*24 (HLA-A*24:02): binds to HLA-A*24
KTLGKLWRL (listed as Homo sapiens) [SEQ ID NO: 267]	–	bind to HLA-A*02 (HLA-A*02:01): binds to HLA-A*02
